Legend:
Experiment in all cases: SPR
[1] = target: T1, FcγRIa, human, C-terminally biotinylated (human, UniProt P12314 16-292, biotin, C-terminal)
T1 chain: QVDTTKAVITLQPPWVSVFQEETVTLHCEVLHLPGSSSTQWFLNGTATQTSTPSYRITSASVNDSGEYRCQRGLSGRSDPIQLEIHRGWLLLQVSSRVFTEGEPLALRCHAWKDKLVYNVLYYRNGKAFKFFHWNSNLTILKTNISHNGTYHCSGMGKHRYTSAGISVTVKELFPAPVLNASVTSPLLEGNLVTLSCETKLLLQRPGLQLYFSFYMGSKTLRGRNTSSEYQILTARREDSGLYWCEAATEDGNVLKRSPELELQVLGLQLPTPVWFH

[2] = target: FcγRIIIa-F158, human, C-terminally biotinylated (human, UniProt P08637 17-208, biotin, C-terminal)
Sequence of FcγRIIIa-F158, human, C-terminally biotinylated (P08637 17-208): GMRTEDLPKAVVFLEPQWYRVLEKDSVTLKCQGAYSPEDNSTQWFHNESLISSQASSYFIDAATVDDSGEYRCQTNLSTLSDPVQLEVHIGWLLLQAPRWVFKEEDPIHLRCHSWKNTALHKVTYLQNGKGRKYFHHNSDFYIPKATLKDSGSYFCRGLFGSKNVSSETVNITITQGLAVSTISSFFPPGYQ

[3] = target: FcγRIIIa-V158, human, C-terminally biotinylated (human, UniProt P08637 17-208, p.176Val (V158), biotin, C-terminal)
Sequence of FcγRIIIa-V158, human, C-terminally biotinylated (P08637 other isoform, or with tags, fused parts or gaps p.176Val (V158)): as the sequence (P08637 17-208) above, with F160V counted along it

[4] = target: T2, FcγRIIa-R131, human, C-terminally biotinylated (human, biotin, C-terminal)
T2 chain: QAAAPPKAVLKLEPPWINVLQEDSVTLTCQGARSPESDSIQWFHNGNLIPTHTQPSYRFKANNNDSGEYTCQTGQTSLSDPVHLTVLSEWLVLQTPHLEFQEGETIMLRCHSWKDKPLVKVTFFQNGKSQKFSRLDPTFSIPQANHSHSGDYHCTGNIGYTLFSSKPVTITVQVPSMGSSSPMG

[5] = target: T3, FcγRIIa-H131, human, C-terminally biotinylated (human, UniProt P12318 34-217, biotin, C-terminal)
T3 chain: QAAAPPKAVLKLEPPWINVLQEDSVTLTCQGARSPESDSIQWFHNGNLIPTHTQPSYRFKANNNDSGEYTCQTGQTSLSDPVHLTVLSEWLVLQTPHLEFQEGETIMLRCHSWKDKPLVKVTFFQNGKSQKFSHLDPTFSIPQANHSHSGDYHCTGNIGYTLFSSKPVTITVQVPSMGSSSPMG

B1: C-reactive protein (native CRP from human fluid) (natural protein)
chain: QTDMSRKAFVFPKESDTSYVSLKAPLTKPLKAFTVCLHFYTELSSTRGYSIFSYATKRQDNEILIFWSKDIGYSFTVGGSEILFEVPEVTVAPVHICTSWESASGIVEFWVDGKPRVRKSLKKGYTVGAEASIILGQEQDSFGGNFEGSQSLVGDIGNVNMWDFVLSPDEINTIYLGGPFSPNVLNWRALKYEVQGEVFTKPQLWP
**Q.** With B1 as the binder, how does the Kd [1] read?
**A.** 3.4 µM

**Q.** What about the Kd [2] of the same binder?
**A.** 4.9 µM

**Q.** What about the Kd [3] of the same binder?
**A.** 4.4 µM

**Q.** What about the Kd [4] of the same binder?
**A.** 4.6 µM

**Q.** And the Kd [5]?
**A.** 4.5 µM

Reference: article PMC8006934 (2021)
